Experimental data reported in patent US12365732 (23ANDME, dated 2025).
Numbering of substitutions follows the chain as printed. Names and notes keep the numbering of the source. Read-outs that look alike come from different tables or passages of the source.

T1: hu-CD96 (soluble, isoform 2 extracellular domain) (human, UniProt P40200 22-516, biotinylated in Octet and blocking ELISA)
T1 construct: the assays name only hu-CD96; also called hCD96; biotinylated hu-CD96
T1 sequence: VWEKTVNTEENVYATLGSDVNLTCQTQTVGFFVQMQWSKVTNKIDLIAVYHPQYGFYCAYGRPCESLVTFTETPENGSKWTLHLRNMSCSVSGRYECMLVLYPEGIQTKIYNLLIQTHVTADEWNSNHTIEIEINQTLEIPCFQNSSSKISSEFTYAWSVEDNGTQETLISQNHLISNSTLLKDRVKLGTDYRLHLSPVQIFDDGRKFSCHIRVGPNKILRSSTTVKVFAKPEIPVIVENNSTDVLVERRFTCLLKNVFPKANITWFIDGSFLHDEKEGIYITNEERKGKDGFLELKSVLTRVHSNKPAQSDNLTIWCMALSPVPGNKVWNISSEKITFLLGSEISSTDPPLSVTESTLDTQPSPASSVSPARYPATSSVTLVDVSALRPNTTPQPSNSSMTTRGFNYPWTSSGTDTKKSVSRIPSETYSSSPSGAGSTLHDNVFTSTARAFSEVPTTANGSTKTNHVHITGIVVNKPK

T2: cy-CD96 (soluble, extracellular domain) (cynomolgus monkey, UniProt P40200 22-516 (human entry), biotinylated in Octet and blocking ELISA)
T2 construct: the assays name only cy-CD96; also called biotinylated cy-CD96
T2 chain: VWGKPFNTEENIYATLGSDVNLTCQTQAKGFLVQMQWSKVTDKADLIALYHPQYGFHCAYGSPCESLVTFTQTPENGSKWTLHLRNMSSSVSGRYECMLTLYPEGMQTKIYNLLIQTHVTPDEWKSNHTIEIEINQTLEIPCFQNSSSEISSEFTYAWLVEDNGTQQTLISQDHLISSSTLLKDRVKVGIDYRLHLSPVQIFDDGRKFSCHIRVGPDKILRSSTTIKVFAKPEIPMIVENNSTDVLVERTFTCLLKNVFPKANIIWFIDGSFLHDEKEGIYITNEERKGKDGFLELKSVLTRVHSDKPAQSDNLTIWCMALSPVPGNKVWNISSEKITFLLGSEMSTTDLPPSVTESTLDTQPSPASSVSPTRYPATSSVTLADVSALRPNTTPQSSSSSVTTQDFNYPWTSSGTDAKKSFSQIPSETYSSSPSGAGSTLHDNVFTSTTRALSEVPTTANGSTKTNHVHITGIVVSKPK

B1: mAb1.v7.6 Fab (Fab, V domains shown)
VH: EVQLVQSGAEVKKPGASVKVSCKASGFTFTNRWMHWVRQAPGQGLEWIGMIHVNSGITNINEKFKNRVTMTTDTSTSTAYMELRSLRSEDTAVYYCRSDGLYEGYFDYWGQGTLVTVSS
VL: DIQLTQSPSSLSASVGDRVTITCKASQNVGTAIVWYQQKPGKAPKVLIYSASTRYTGVPSRFSGSGSGTDFTLTISSLQPEDFATYYCQQYSSSPLTFGQGTKVEIK
notes: also called N32R/P52aV/T97L
B2: mAb1.v7.8 Fab (Fab, V domains shown)
VH: B1 VH with R32N, M34D, V53P, N54L, L101V
VL: B1 VL
notes: also called M34D/N53L/T97V
B3: mAb1.v7.10 Fab (Fab, V domains shown)
VH: B1 VH with R32N, M34R, V53P, N54L, L101V
VL: B1 VL
notes: also called M34R/N53L/T97V
B4: mAb1.v7.11 Fab (Fab, V domains shown)
VH: B1 VH with R32N, W33F, V53P, I57G, G100E, L101T
VL: B1 VL
notes: Fab with 8xHis tag
B5: mAb1.v7.14 Fab (Fab, V domains shown)
VH: B1 VH with T30V, R32N, V53P, I60T, L101I
VL: B1 VL
notes: also called T30V/I59T/T97I
B6: mAb1.v7.15 Fab (Fab, V domains shown)
VH: B1 VH with R32N, M34D, V53P, N54M, L101F
VL: B1 VL
notes: also called M34D/N53M/T97F
B7: mAb1.v7.19 Fab (Fab, V domains shown)
VH: B1 VH with R32S, V53P, I60R, L101I
VL: B1 VL
notes: also called N32S/I59R/T97I
B8: mAb1.v7.21 Fab (Fab, V domains shown)
VH: B1 VH with R32Y, V53P, I60M, L101V
VL: B1 VL
notes: also called N32Y/I59M/T97V
B9: mAb1.v7.24 Fab (Fab, V domains shown)
VH: B1 VH with R32N, M34G, V53R, L101I
VL: B1 VL
notes: also called M34G/P52aR/T97
B10: mAb1.v7.50 Fab (Fab, V domains shown)
VH: B1 VH with R32N, M34S, V53R, L101V
VL: B1 VL
notes: also called M34S/P52aR/T97V
B11: mAb1.v7.59 Fab (Fab, V domains shown)
VH: B1 VH with R32N, M34N, V53P, N59A, S98L, L101T
VL: B1 VL
notes: also called M34N//N58A/S94L
B12: mAb1.v7.NGS1 Fab (Fab, V domains shown)
VH: B1 VH with R32N, W33F, V53P, L101T
VL: B1 VL
notes: also called W33F
B13: mAb1.v7.NGS2 Fab (Fab, V domains shown)
VH: B1 VH with R32N, M50F, V53P, L101T
VL: B1 VL
notes: also called M50F
B14: mAb1.v7.NGS3 Fab (Fab, V domains shown)
VH: B1 VH with R32N, V53A, L101T
VL: B1 VL
notes: also called P52aA
B15: mAb1.v7.NGS4 Fab (Fab, V domains shown)
VH: B1 VH with R32N, V53P, E62H, L101T
VL: B1 VL
notes: also called E61H
B16: mAb1.v7.NGS5 Fab (Fab, V domains shown)
VH: B1 VH with R32N, V53P, E62R, L101T
VL: B1 VL
notes: also called E61R
B17: mAb1.v7.NGS6 Fab (Fab, V domains shown)
VH: B1 VH with R32N, V53P, L101I
VL: B1 VL
notes: Fab with 8xHis tag; also called T97I
B18: mAb1.v7.NGS7 Fab (Fab, V domains shown)
VH: B1 VH with R32N, V53P, L101V
VL: B1 VL
notes: also called T97V

Tests used:
[1] = target: T1, hu-CD96 (soluble, isoform 2 …); assay: BLI (Octet), biotin-CD96 on SA, Fab analyte
Procedure: (§1) The binding affinity of the generated Fab variants of mAb1.v7 for hu-CD96 and cy-CD96 was determined by OCTET (Pall ForteBio) Bio-Layer Interferometry (BLI) binding analysis. The biotinylated hu-CD96 or biotinylated cy-CD96 was diluted to a final concentration 10 µg/mL in experimental buffer (PBS buffer with 0.01% Tween-20) and immobilized on the Streptavidin Capture (SA) biosensors (Pall ForteBio). Three-fold serial dilutions of the mAb1.v7 Fab variants starting at 1 µM as analytes were diluted in the experimental buffer (PBS buffer with 0.01% Tween-20). The biosensors were equilibrated in experimental buffer at 30° C. for ten minutes prior to starting the experiment. The kinetics experiment was performed with the following steps, where the step name, solution and time are listed: Baseline (buffer—60 seconds), Loading (biotinylated antigen—200 seconds), Baseline 2 (buffer—minimum 120 seconds), Association (analyte—200-300 seconds) and Dissociation (buffer—1000 seconds). The resulting BLI signal from analyte association and dissociation from the […] was analyzed using the Octet Data Analysis software (Pall ForteBio). First a reference subtraction was performed on all recorded traces using the reference well (biosensor that underwent same steps as experimental wells but no analyte for the Association step) and then all the traces were aligned to the beginning of the Association step. The entirety of the Association and Dissociation steps were used in a Global fit (minimum of four analyte concentration traces) in a 1:1 binding model to calculate the K_D values for the 16 selected individual mAb1.v7 Fab variants as summarized in Table 9 (below).

[2] = target: T2, cy-CD96 (soluble, extracellular domain); assay: BLI (Octet), biotin-CD96 on SA, Fab analyte
Procedure: as §1

[3] = target: T1, hu-CD96 (soluble, isoform 2 …); assay: phage competition ELISA, soluble CD96 vs coated hu-CD96
Procedure: (§2) 192 colonies from most stringent selections (biotinylated 0.1 nM of hu-CD96 or cy-CD96 with 1000× non-biotinylated human or cy-CD96) were grown in 400 µL 2YT with 4 µL helper phage M13KO7 overnight at 37° C. with shaking. After spinning down the pellet, the phage supernatant was diluted 1:1 with 2 nM hu-CD96, 20 nM cy-CD96 and ELISA buffer (0.5% BSA and 0.05% TWEEN®20 in PBS) in total […] and incubated for two hours at room temperature with agitation. The […] of mixture was transferred to hu-CD96 coated plate for 15 min to capture unbound phage. The plate was washed with wash buffer (0.05% TWEEN®20 in PBS), and HRP-conjugated anti-M13 antibody (Sino biological, Cat #11973-MM05-H-50) was added in ELISA buffer for 30 min. […] Enzymatic color development was stopped using TMB stop solution (VWR, Cat #95059-200). Plates were analyzed with a SpectraMax i3X plate reader (Molecular Devices). The % inhibition was calculated by the $OD450$ of wells with hu-CD96/cy-CD96 competitor divided by $OD450$ of wells with buffer alone. The lower % inhibition indicated higher phage $IC50$ against hu-CD96 or cy-CD96.
(§3) Selected top inhibition % phage variants from single spot competition were purified from culture supernatants. The optimal phage concentration was incubated with serially-diluted hu-CD96 or cy-CD96 in ELISA buffer in NUNC F plate for two hours. The […] of the mixture was transferred to hu-CD96 coated wells for 15 min to capture unbound phage. The plate was washed with wash buffer (0.05% TWEEN®20 in PBS), and HRP-conjugated anti-M13 antibody (Sino biological, Cat #11973-MM05-H-50) was added in ELISA buffer for 30 min. The plates were washed and developed as described above. The absorbance at 450 nm was plotted as a function of antigen concentration in solution to determine phage $IC50$.

[4] = target: T2, cy-CD96 (soluble, extracellular domain); assay: as above
Procedure: as §2, §3

[5] = target: T1, hu-CD96 (soluble, isoform 2 …); assay: BLI (Octet), biotin-CD96 on SA, Fab analyte; remark: listed apart in the source
[6] = target: T2, cy-CD96 (soluble, extracellular domain); assay: BLI (Octet), biotin-CD96 on SA, Fab analyte

Binder | Kd [1] [nM] | Kd [2] [nM] | IC50 [3] [nM] | IC50 [4] [nM] | Kd [5] [nM] | Kd [6] [nM]
B1 | 28.4 | 284 | 0.16 | 0.15 |  | 
B2 | 27 | 104 | 0.17 | 0.45 |  | 
B3 | 2.71 | 117 | 0.19 | 0.76 |  | 
B4 | 156 | 175 | 0.23 | 0.24 |  | 
B5 | ~0.1 | 530 | 0.1 | 1 |  | 
B6 | 3 | 160 | 0.19 | 1.85 |  | 
B7 | 0.63 | 261 | 0.23 | 0.84 |  | 
B8 | 0.31 | 118 | 0.15 | 0.91 |  | 
B9 | 0.31 | 118 | 0.2 | 0.6 |  | 
B10 | 4.16 | 183 | 0.1 | 0.9 |  | 
B11 | ~0.1 | 271 | 0.1 | 1.6 |  | 
B12 |  |  |  |  | 49 | 271
B13 |  |  |  |  | 63 | ~100
B14 |  |  |  |  | 0.1 | ~1000
B15 |  |  |  |  | 31.5 | 739
B16 |  |  |  |  | 43.6 | 85
B17 |  |  |  |  | 5.32 | 289
B18 |  |  |  |  | 5.61 | 383
